The target of test [1] is Glo3p (UniProt P38682 1-493). The test can be described thus: pull-down.
The target in test [2] is Sar1p (UniProt P20606 1-190). The test can be described thus: pull-down.
Chain of Sar1p (P20606 whole entry): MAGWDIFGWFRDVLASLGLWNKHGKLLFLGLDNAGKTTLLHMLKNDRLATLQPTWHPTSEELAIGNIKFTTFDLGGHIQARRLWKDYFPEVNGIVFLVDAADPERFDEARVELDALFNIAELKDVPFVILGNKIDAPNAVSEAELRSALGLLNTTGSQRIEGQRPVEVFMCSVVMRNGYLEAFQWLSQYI

Chain of Glo3p (P38682 whole entry): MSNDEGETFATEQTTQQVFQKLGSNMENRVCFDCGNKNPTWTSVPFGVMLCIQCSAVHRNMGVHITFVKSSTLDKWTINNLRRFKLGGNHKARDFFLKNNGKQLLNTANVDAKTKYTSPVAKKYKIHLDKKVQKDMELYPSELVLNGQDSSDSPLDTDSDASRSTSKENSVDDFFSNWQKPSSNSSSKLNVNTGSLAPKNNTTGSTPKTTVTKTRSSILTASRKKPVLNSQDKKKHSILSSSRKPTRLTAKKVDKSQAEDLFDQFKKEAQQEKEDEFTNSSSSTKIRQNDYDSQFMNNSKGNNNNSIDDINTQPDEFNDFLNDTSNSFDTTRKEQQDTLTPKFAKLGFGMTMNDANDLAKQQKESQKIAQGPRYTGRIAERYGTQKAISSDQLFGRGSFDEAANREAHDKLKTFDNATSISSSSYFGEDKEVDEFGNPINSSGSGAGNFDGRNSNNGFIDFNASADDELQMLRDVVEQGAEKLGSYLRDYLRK

B1: Bet1p-(41–119) (domain or fragment)
chain: TDKLDYSQSTLASLESQSEEQMGAMGQRIKALKSLSLKMGDEIRGSNQTIDQLGDTFHNTSVKLKRTFGNMMEMARRSG
For B1, the binding result in test [1] was “binds”.

B2: Bet1p-GST (domain or fragment)
chain: MSSRFAGGNAYQRDTGRTQLFGPADGSNSLDDNVSSALGSTDKLDYSQSTLASLESQSEEQMGAMGQRIKALKSLSLKMGDEIRGSNQTIDQLGDTFHNTSVKLKRTFGNMMEMARRSG
Consider B2, for which the binding result in test [2] is on record as “binds”.

(Values after PMC2173288 (The Journal of Cell Biology, 2002).)
